According to the supplement of paper PMC7125110:
± gives the standard error. This sample holds only a part of the variants without activity.

B1: glmS ribozyme (parent)
chain: AUAAAAGCGCCAGAACUACAGAAAUGUAGUUGACGAGGAGGAGGUUUAUCGAAUUUUCGGCGGAUGCCUCCAAA

Legend:
Details in all cases: with glucosamine-6-phosphate
glucosamine-6-phosphate [1] = variants of: B1; test: self-cleavage kobs at 40 uM GlcN6P; higher = faster cleavage; RNA array
How it was run: (§1)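 In situ transcription by E. coli RNA polymerase produced barcoded ribozyme variants on sequenced MiSeq chips, and a hybridised Cy3 probe tracked them at 37 °C. Glucosamine-6-phosphate was flowed in at 40 μM to 10 mM in HEPES/KCl/Mg(OAc)2 buffer. kcat and KM were taken from weighted Michaelis–Menten fits of kobs values from exponential decay fits.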

glucosamine-6-phosphate [2] = variants of: B1; test: self-cleavage kobs at 160 uM GlcN6P; higher = faster cleavage; RNA array
How it was run: as §1

glucosamine-6-phosphate [3] = variants of: B1; test: self-cleavage kobs at 640 uM GlcN6P; higher = faster cleavage; RNA array
How it was run: as §1

glucosamine-6-phosphate [4] = variants of: B1; test: self-cleavage kobs at 2500 uM GlcN6P; higher = faster cleavage; RNA array
How it was run: as §1

glucosamine-6-phosphate [5] = variants of: B1; test: self-cleavage kobs at 10000 uM GlcN6P; higher = faster cleavage; RNA array
How it was run: as §1

A42G U47A
self-cleavage kobs at 40 uM GlcN6P (glucosamine-6-phosphate [1]): 0.000848 ± 0.00018 s⁻¹
self-cleavage kobs at 160 uM GlcN6P (glucosamine-6-phosphate [2]): 0.00279 ± 0.0011 s⁻¹
self-cleavage kobs at 640 uM GlcN6P (glucosamine-6-phosphate [3]): 0.00967 ± 0.0013 s⁻¹
self-cleavage kobs at 2500 uM GlcN6P (glucosamine-6-phosphate [4]): 0.0269 ± 0.0085 s⁻¹
self-cleavage kobs at 10000 uM GlcN6P (glucosamine-6-phosphate [5]): 0.00752 ± 0.0028 s⁻¹

G41C G43U
self-cleavage kobs at 40 uM GlcN6P (glucosamine-6-phosphate [1]): < 1e-05 s⁻¹
self-cleavage kobs at 160 uM GlcN6P (glucosamine-6-phosphate [2]): < 1e-05 s⁻¹
self-cleavage kobs at 640 uM GlcN6P (glucosamine-6-phosphate [3]): < 1e-05 s⁻¹
self-cleavage kobs at 2500 uM GlcN6P (glucosamine-6-phosphate [4]): < 1e-05 s⁻¹
self-cleavage kobs at 10000 uM GlcN6P (glucosamine-6-phosphate [5]): < 1e-05 s⁻¹

G41C C67U
self-cleavage kobs at 40 uM GlcN6P (glucosamine-6-phosphate [1]): < 1e-05 s⁻¹
self-cleavage kobs at 160 uM GlcN6P (glucosamine-6-phosphate [2]): < 1e-05 s⁻¹
self-cleavage kobs at 640 uM GlcN6P (glucosamine-6-phosphate [3]): < 1e-05 s⁻¹
self-cleavage kobs at 2500 uM GlcN6P (glucosamine-6-phosphate [4]): < 1e-05 s⁻¹
self-cleavage kobs at 10000 uM GlcN6P (glucosamine-6-phosphate [5]): < 1e-05 s⁻¹

A42G U45C
self-cleavage kobs at 40 uM GlcN6P (glucosamine-6-phosphate [1]): 5.93e-05 ± 2.9e-05 s⁻¹

A42U G51U
self-cleavage kobs at 40 uM GlcN6P (glucosamine-6-phosphate [1]): < 1e-05 s⁻¹
self-cleavage kobs at 160 uM GlcN6P (glucosamine-6-phosphate [2]): < 1e-05 s⁻¹
self-cleavage kobs at 640 uM GlcN6P (glucosamine-6-phosphate [3]): < 1e-05 s⁻¹
self-cleavage kobs at 10000 uM GlcN6P (glucosamine-6-phosphate [5]): < 1e-05 s⁻¹

G43U C50U U55G
self-cleavage kobs at 40 uM GlcN6P (glucosamine-6-phosphate [1]): < 1e-05 s⁻¹
self-cleavage kobs at 640 uM GlcN6P (glucosamine-6-phosphate [3]): < 1e-05 s⁻¹
self-cleavage kobs at 2500 uM GlcN6P (glucosamine-6-phosphate [4]): < 1e-05 s⁻¹

G40U C61U
self-cleavage kobs at 40 uM GlcN6P (glucosamine-6-phosphate [1]): < 1e-05 s⁻¹
self-cleavage kobs at 160 uM GlcN6P (glucosamine-6-phosphate [2]): < 1e-05 s⁻¹

G40A C67A
self-cleavage kobs at 40 uM GlcN6P (glucosamine-6-phosphate [1]): < 1e-05 s⁻¹
self-cleavage kobs at 640 uM GlcN6P (glucosamine-6-phosphate [3]): 0.000183 ± 5.8e-05 s⁻¹
self-cleavage kobs at 2500 uM GlcN6P (glucosamine-6-phosphate [4]): 0.000262 ± 0.00011 s⁻¹

A39U C68U C71G
self-cleavage kobs at 40 uM GlcN6P (glucosamine-6-phosphate [1]): < 1e-05 s⁻¹
self-cleavage kobs at 10000 uM GlcN6P (glucosamine-6-phosphate [5]): 4.42e-05 ± 2e-05 s⁻¹

G41A U69C
self-cleavage kobs at 40 uM GlcN6P (glucosamine-6-phosphate [1]): < 1e-05 s⁻¹
self-cleavage kobs at 160 uM GlcN6P (glucosamine-6-phosphate [2]): < 1e-05 s⁻¹

G40C G41A C70U
self-cleavage kobs at 40 uM GlcN6P (glucosamine-6-phosphate [1]): 8.35e-05 ± 2.8e-05 s⁻¹
self-cleavage kobs at 2500 uM GlcN6P (glucosamine-6-phosphate [4]): 0.000861 ± 0.00023 s⁻¹

G43C A52U
self-cleavage kobs at 40 uM GlcN6P (glucosamine-6-phosphate [1]): < 1e-05 s⁻¹
self-cleavage kobs at 160 uM GlcN6P (glucosamine-6-phosphate [2]): < 1e-05 s⁻¹
self-cleavage kobs at 640 uM GlcN6P (glucosamine-6-phosphate [3]): < 1e-05 s⁻¹
self-cleavage kobs at 2500 uM GlcN6P (glucosamine-6-phosphate [4]): < 1e-05 s⁻¹
self-cleavage kobs at 10000 uM GlcN6P (glucosamine-6-phosphate [5]): < 1e-05 s⁻¹

G40A A48U C61G
self-cleavage kobs at 40 uM GlcN6P (glucosamine-6-phosphate [1]): < 1e-05 s⁻¹
self-cleavage kobs at 10000 uM GlcN6P (glucosamine-6-phosphate [5]): < 1e-05 s⁻¹

A42G C68U
self-cleavage kobs at 40 uM GlcN6P (glucosamine-6-phosphate [1]): 0.000563 ± 7.3e-05 s⁻¹
self-cleavage kobs at 160 uM GlcN6P (glucosamine-6-phosphate [2]): 0.000735 ± 0.00016 s⁻¹
self-cleavage kobs at 640 uM GlcN6P (glucosamine-6-phosphate [3]): 0.00237 ± 0.00041 s⁻¹
self-cleavage kobs at 10000 uM GlcN6P (glucosamine-6-phosphate [5]): 0.0168 ± 0.0034 s⁻¹

A42U U49G C68G
self-cleavage kobs at 40 uM GlcN6P (glucosamine-6-phosphate [1]): < 1e-05 s⁻¹

G40C G44C
self-cleavage kobs at 40 uM GlcN6P (glucosamine-6-phosphate [1]): < 1e-05 s⁻¹
self-cleavage kobs at 10000 uM GlcN6P (glucosamine-6-phosphate [5]): < 1e-05 s⁻¹

G40A U45G
self-cleavage kobs at 40 uM GlcN6P (glucosamine-6-phosphate [1]): 5.96e-05 ± 1.5e-05 s⁻¹
self-cleavage kobs at 640 uM GlcN6P (glucosamine-6-phosphate [3]): 0.000563 ± 0.00021 s⁻¹
self-cleavage kobs at 2500 uM GlcN6P (glucosamine-6-phosphate [4]): 0.000133 ± 4.2e-05 s⁻¹
self-cleavage kobs at 10000 uM GlcN6P (glucosamine-6-phosphate [5]): 0.000145 ± 3.5e-05 s⁻¹

G40U C61A G63C
self-cleavage kobs at 40 uM GlcN6P (glucosamine-6-phosphate [1]): < 1e-05 s⁻¹
self-cleavage kobs at 160 uM GlcN6P (glucosamine-6-phosphate [2]): < 1e-05 s⁻¹
self-cleavage kobs at 2500 uM GlcN6P (glucosamine-6-phosphate [4]): < 1e-05 s⁻¹

G40A G60A
self-cleavage kobs at 40 uM GlcN6P (glucosamine-6-phosphate [1]): < 1e-05 s⁻¹
self-cleavage kobs at 160 uM GlcN6P (glucosamine-6-phosphate [2]): < 1e-05 s⁻¹
self-cleavage kobs at 640 uM GlcN6P (glucosamine-6-phosphate [3]): < 1e-05 s⁻¹

G41A U57G
self-cleavage kobs at 40 uM GlcN6P (glucosamine-6-phosphate [1]): < 1e-05 s⁻¹
self-cleavage kobs at 10000 uM GlcN6P (glucosamine-6-phosphate [5]): < 1e-05 s⁻¹

G41A U57C
self-cleavage kobs at 40 uM GlcN6P (glucosamine-6-phosphate [1]): < 1e-05 s⁻¹
self-cleavage kobs at 160 uM GlcN6P (glucosamine-6-phosphate [2]): < 1e-05 s⁻¹
self-cleavage kobs at 640 uM GlcN6P (glucosamine-6-phosphate [3]): < 1e-05 s⁻¹

G41U G63U
self-cleavage kobs at 40 uM GlcN6P (glucosamine-6-phosphate [1]): < 1e-05 s⁻¹
self-cleavage kobs at 160 uM GlcN6P (glucosamine-6-phosphate [2]): < 1e-05 s⁻¹
self-cleavage kobs at 640 uM GlcN6P (glucosamine-6-phosphate [3]): < 1e-05 s⁻¹
self-cleavage kobs at 2500 uM GlcN6P (glucosamine-6-phosphate [4]): < 1e-05 s⁻¹
self-cleavage kobs at 10000 uM GlcN6P (glucosamine-6-phosphate [5]): < 1e-05 s⁻¹
